According to patent US20220306695A1, “COMPSTATIN ANALOGUES AND THEIR MEDICAL USES” (priority 2019, published 2022):
Positions of bridges follow the written chain, without caps; N, C: chain ends. Non-standard residues stand in square brackets, D forms with d. Trp(1-Me) = Cn1cc(C[C@H](N)C(=O)O)c2ccccc21; Sar = CNCC(=O)O

Target: Human C3 (human, UniProt P01024 23-1663)
Assay: cell-based or functional assay

Sequence of Human C3 (P01024 23-1663 limits assumed): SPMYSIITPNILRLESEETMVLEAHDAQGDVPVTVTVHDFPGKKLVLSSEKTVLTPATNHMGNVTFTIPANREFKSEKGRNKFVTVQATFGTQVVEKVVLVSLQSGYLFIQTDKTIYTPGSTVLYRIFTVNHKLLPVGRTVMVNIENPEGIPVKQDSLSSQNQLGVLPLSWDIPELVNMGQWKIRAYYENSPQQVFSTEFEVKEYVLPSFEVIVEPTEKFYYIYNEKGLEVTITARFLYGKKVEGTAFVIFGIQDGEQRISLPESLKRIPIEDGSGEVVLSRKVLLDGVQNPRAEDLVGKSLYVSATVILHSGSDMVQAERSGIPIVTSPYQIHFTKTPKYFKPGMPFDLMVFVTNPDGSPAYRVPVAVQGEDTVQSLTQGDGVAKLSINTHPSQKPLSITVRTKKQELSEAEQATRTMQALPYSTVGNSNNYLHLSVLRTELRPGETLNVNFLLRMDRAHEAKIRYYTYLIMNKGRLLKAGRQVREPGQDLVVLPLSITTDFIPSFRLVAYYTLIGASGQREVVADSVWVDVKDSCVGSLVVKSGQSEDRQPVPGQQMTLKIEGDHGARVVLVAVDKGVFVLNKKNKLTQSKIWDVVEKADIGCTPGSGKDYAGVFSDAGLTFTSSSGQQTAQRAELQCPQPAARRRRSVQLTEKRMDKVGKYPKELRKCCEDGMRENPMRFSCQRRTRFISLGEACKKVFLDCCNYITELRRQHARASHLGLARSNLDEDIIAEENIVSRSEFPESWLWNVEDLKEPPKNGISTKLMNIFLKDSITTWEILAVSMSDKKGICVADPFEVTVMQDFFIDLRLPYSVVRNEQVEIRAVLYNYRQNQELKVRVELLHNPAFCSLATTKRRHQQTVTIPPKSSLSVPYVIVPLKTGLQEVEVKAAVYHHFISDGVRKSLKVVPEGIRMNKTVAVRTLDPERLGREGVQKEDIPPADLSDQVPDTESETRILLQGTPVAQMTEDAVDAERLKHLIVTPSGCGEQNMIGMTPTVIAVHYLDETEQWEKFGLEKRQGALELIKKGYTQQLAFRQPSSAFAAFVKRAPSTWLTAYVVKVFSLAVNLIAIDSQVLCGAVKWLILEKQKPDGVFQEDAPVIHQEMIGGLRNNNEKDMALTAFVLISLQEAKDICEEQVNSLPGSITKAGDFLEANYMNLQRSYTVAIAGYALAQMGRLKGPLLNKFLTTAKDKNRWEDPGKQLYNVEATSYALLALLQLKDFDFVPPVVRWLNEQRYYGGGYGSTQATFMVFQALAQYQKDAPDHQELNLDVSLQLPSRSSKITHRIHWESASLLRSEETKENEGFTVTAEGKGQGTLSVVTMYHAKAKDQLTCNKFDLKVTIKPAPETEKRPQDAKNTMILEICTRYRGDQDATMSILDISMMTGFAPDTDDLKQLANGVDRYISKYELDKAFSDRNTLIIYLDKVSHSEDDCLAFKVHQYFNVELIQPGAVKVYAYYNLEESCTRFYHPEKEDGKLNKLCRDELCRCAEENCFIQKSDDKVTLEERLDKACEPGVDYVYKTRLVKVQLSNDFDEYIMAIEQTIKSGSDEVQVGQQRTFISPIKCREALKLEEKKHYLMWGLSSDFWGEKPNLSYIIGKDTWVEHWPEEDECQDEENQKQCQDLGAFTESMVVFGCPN

B1: Compound 80 (peptide)
peptide: Ac-EFCI[Trp(1-Me)]QDWGEHRC[Sar]EA-NH2
modifications: disulfide 3-13
SMILES: CC[C@H](C)[C@@H]1NC(=O)[C@@H](NC(=O)[C@H](Cc2ccccc2)NC(=O)[C@H](CCC(=O)O)NC(C)=O)CSSC[C@@H](C(=O)N(C)CC(=O)N[C@@H](CCC(=O)O)C(=O)N[C@@H](C)C(N)=O)NC(=O)[C@H](CCCNC(=N)N)NC(=O)[C@H](Cc2c[nH]cn2)NC(=O)[C@H](CCC(=O)O)NC(=O)CNC(=O)[C@H](Cc2c[nH]c3ccccc23)NC(=O)[C@H](CC(=O)O)NC(=O)[C@H](CCC(N)=O)NC(=O)[C@H](Cc2cn(C)c3ccccc23)NC1=O
  IC50[nM], inhibition of hemolysis: < 100 nM

B2: Compound 72 (peptide)
peptide: Ac-FCI[Trp(1-Me)]QDW[Sar]EHRCTGAES-NH2
modifications: disulfide 2-12
SMILES: CC[C@H](C)[C@@H]1NC(=O)[C@@H](NC(=O)[C@H](Cc2ccccc2)NC(C)=O)CSSC[C@@H](C(=O)N[C@H](C(=O)NCC(=O)N[C@@H](C)C(=O)N[C@@H](CCC(=O)O)C(=O)N[C@@H](CO)C(N)=O)[C@@H](C)O)NC(=O)[C@H](CCCNC(=N)N)NC(=O)[C@H](Cc2c[nH]cn2)NC(=O)[C@H](CCC(=O)O)NC(=O)CN(C)C(=O)[C@H](Cc2c[nH]c3ccccc23)NC(=O)[C@H](CC(=O)O)NC(=O)[C@H](CCC(N)=O)NC(=O)[C@H](Cc2cn(C)c3ccccc23)NC1=O
  IC50[nM], inhibition of hemolysis: < 100 nM

B3: Compound 79 (peptide)
peptide: Ac-SEFCI[Trp(1-Me)]QDW[Sar]EHRC[Sar]E-NH2
modifications: disulfide 4-14
SMILES: CC[C@H](C)[C@@H]1NC(=O)[C@@H](NC(=O)[C@H](Cc2ccccc2)NC(=O)[C@H](CCC(=O)O)NC(=O)[C@H](CO)NC(C)=O)CSSC[C@@H](C(=O)N(C)CC(=O)N[C@@H](CCC(=O)O)C(N)=O)NC(=O)[C@H](CCCNC(=N)N)NC(=O)[C@H](Cc2c[nH]cn2)NC(=O)[C@H](CCC(=O)O)NC(=O)CN(C)C(=O)[C@H](Cc2c[nH]c3ccccc23)NC(=O)[C@H](CC(=O)O)NC(=O)[C@H](CCC(N)=O)NC(=O)[C@H](Cc2cn(C)c3ccccc23)NC1=O
  IC50[nM], inhibition of hemolysis: < 100 nM

B4: Compound 76 (peptide)
peptide: Ac-SEFCI[Trp(1-Me)]QDW[Sar]EHRC[Sar]EA-NH2
modifications: disulfide 4-14
SMILES: CC[C@H](C)[C@@H]1NC(=O)[C@@H](NC(=O)[C@H](Cc2ccccc2)NC(=O)[C@H](CCC(=O)O)NC(=O)[C@H](CO)NC(C)=O)CSSC[C@@H](C(=O)N(C)CC(=O)N[C@@H](CCC(=O)O)C(=O)N[C@@H](C)C(N)=O)NC(=O)[C@H](CCCNC(=N)N)NC(=O)[C@H](Cc2c[nH]cn2)NC(=O)[C@H](CCC(=O)O)NC(=O)CN(C)C(=O)[C@H](Cc2c[nH]c3ccccc23)NC(=O)[C@H](CC(=O)O)NC(=O)[C@H](CCC(N)=O)NC(=O)[C@H](Cc2cn(C)c3ccccc23)NC1=O
  IC50[nM], inhibition of hemolysis: < 100 nM

B5: Compound 69 (peptide)
peptide: Ac-YCI[Trp(1-Me)]QDWGEHRCTESGA-NH2
modifications: disulfide 2-12
SMILES: CC[C@H](C)[C@@H]1NC(=O)[C@@H](NC(=O)[C@H](Cc2ccc(O)cc2)NC(C)=O)CSSC[C@@H](C(=O)N[C@H](C(=O)N[C@@H](CCC(=O)O)C(=O)N[C@@H](CO)C(=O)NCC(=O)N[C@@H](C)C(N)=O)[C@@H](C)O)NC(=O)[C@H](CCCNC(=N)N)NC(=O)[C@H](Cc2c[nH]cn2)NC(=O)[C@H](CCC(=O)O)NC(=O)CNC(=O)[C@H](Cc2c[nH]c3ccccc23)NC(=O)[C@H](CC(=O)O)NC(=O)[C@H](CCC(N)=O)NC(=O)[C@H](Cc2cn(C)c3ccccc23)NC1=O
  IC50[nM], inhibition of hemolysis: < 100 nM

B6: Compound 70 (peptide)
peptide: Ac-EGSAYCI[Trp(1-Me)]QEWGEHRC[Sar]E-NH2
modifications: disulfide 6-16
SMILES: CC[C@H](C)[C@@H]1NC(=O)[C@@H](NC(=O)[C@H](Cc2ccc(O)cc2)NC(=O)[C@H](C)NC(=O)[C@H](CO)NC(=O)CNC(=O)[C@H](CCC(=O)O)NC(C)=O)CSSC[C@@H](C(=O)N(C)CC(=O)N[C@@H](CCC(=O)O)C(N)=O)NC(=O)[C@H](CCCNC(=N)N)NC(=O)[C@H](Cc2c[nH]cn2)NC(=O)[C@H](CCC(=O)O)NC(=O)CNC(=O)[C@H](Cc2c[nH]c3ccccc23)NC(=O)[C@H](CCC(=O)O)NC(=O)[C@H](CCC(N)=O)NC(=O)[C@H](Cc2cn(C)c3ccccc23)NC1=O
  IC50[nM], inhibition of hemolysis: < 100 nM

B7: Compound 78 (peptide)
peptide: Ac-SEFCI[Trp(1-Me)]QDWGEHRC[Sar]E-NH2
modifications: disulfide 4-14
SMILES: CC[C@H](C)[C@@H]1NC(=O)[C@@H](NC(=O)[C@H](Cc2ccccc2)NC(=O)[C@H](CCC(=O)O)NC(=O)[C@H](CO)NC(C)=O)CSSC[C@@H](C(=O)N(C)CC(=O)N[C@@H](CCC(=O)O)C(N)=O)NC(=O)[C@H](CCCNC(=N)N)NC(=O)[C@H](Cc2c[nH]cn2)NC(=O)[C@H](CCC(=O)O)NC(=O)CNC(=O)[C@H](Cc2c[nH]c3ccccc23)NC(=O)[C@H](CC(=O)O)NC(=O)[C@H](CCC(N)=O)NC(=O)[C@H](Cc2cn(C)c3ccccc23)NC1=O
  IC50[nM], inhibition of hemolysis: < 100 nM

B8: Compound 71 (peptide)
peptide: Ac-SEYCI[Trp(1-Me)]QDWGEHRC[Sar]EA-NH2
modifications: disulfide 4-14
SMILES: CC[C@H](C)[C@@H]1NC(=O)[C@@H](NC(=O)[C@H](Cc2ccc(O)cc2)NC(=O)[C@H](CCC(=O)O)NC(=O)[C@H](CO)NC(C)=O)CSSC[C@@H](C(=O)N(C)CC(=O)N[C@@H](CCC(=O)O)C(=O)N[C@@H](C)C(N)=O)NC(=O)[C@H](CCCNC(=N)N)NC(=O)[C@H](Cc2c[nH]cn2)NC(=O)[C@H](CCC(=O)O)NC(=O)CNC(=O)[C@H](Cc2c[nH]c3ccccc23)NC(=O)[C@H](CC(=O)O)NC(=O)[C@H](CCC(N)=O)NC(=O)[C@H](Cc2cn(C)c3ccccc23)NC1=O
  IC50[nM], inhibition of hemolysis: < 100 nM

B9: Compound 77 (peptide)
peptide: Ac-SEFCI[Trp(1-Me)]QDW[Sar]EHRCTEA-NH2
modifications: disulfide 4-14
SMILES: CC[C@H](C)[C@@H]1NC(=O)[C@@H](NC(=O)[C@H](Cc2ccccc2)NC(=O)[C@H](CCC(=O)O)NC(=O)[C@H](CO)NC(C)=O)CSSC[C@@H](C(=O)N[C@H](C(=O)N[C@@H](CCC(=O)O)C(=O)N[C@@H](C)C(N)=O)[C@@H](C)O)NC(=O)[C@H](CCCNC(=N)N)NC(=O)[C@H](Cc2c[nH]cn2)NC(=O)[C@H](CCC(=O)O)NC(=O)CN(C)C(=O)[C@H](Cc2c[nH]c3ccccc23)NC(=O)[C@H](CC(=O)O)NC(=O)[C@H](CCC(N)=O)NC(=O)[C@H](Cc2cn(C)c3ccccc23)NC1=O
  IC50[nM], inhibition of hemolysis: < 100 nM

B10: Compound 74 (peptide)
peptide: Ac-SEFCI[Trp(1-Me)]QDWGEHRC[Sar]GAES-NH2
modifications: disulfide 4-14
SMILES: CC[C@H](C)[C@@H]1NC(=O)[C@@H](NC(=O)[C@H](Cc2ccccc2)NC(=O)[C@H](CCC(=O)O)NC(=O)[C@H](CO)NC(C)=O)CSSC[C@@H](C(=O)N(C)CC(=O)NCC(=O)N[C@@H](C)C(=O)N[C@@H](CCC(=O)O)C(=O)N[C@@H](CO)C(N)=O)NC(=O)[C@H](CCCNC(=N)N)NC(=O)[C@H](Cc2c[nH]cn2)NC(=O)[C@H](CCC(=O)O)NC(=O)CNC(=O)[C@H](Cc2c[nH]c3ccccc23)NC(=O)[C@H](CC(=O)O)NC(=O)[C@H](CCC(N)=O)NC(=O)[C@H](Cc2cn(C)c3ccccc23)NC1=O
  IC50[nM], inhibition of hemolysis: < 100 nM
